This is an account of results in patent US20250122482A1.

In the test the target is mouse-TfR Fab (8D3) fused to SpyCatcher. Put plainly: cell-based or functional assay.

With “soluble SpyTag peptide (peptide; modification not given; by the resolver: SpyCatcher is fused to one Fab chain and forms an isopeptide bond with SpyTag, whether soluble or on the capsid)”, the cross conjugation signal (luciferase, transduction assay on mTfR+HEK293) (log reduction) stood at 2.
